# How the values were obtained:
# [1] = test system: CC(=O)N[C@H]1[C@H](Oc2ccc([N+](=O)[O-])cc2)O[C@H](CO)[C@H](O)[C@@H]1O; assay: purified protein; settings: citrate buffer pH 5.5, 0.25 to 1.5 mM substrate, 30.0 °C
# [2] = test system: CC(=O)N[C@H]1[C@H](Oc2ccc([N+](=O)[O-])cc2)O[C@H](CO)[C@@H](O)[C@@H]1O; assay: purified protein; settings: citrate buffer pH 5.5, 0.25 to 1.5 mM substrate, 30.0 °C
substance,measurement,setting,value
Uhgb_GH123 (Phocaeicola plebeius DSM 17135),Km,[1],1170 ± 100 µM
same,kcat,[1],21.2 ± 1.18 s⁻¹
same,kcat/Km,[1],18200 M⁻¹ s⁻¹
same,Km,[2],3870 ± 270 µM
same,kcat,[2],0.33 ± 0.02 s⁻¹
same,kcat/Km,[2],85 M⁻¹ s⁻¹
